Source: paper PMC5430726

Tests used:
[1] = molecular target: Grb2 SH3C-SLP65 peptide binary complex (formed before Vav SH3N was added) (mouse) (UniProt Q60631); test: ITC; Vav SH3N titrated into the preformed Grb2 SH3C-SLP65 peptide binary complex (gives Complex 2, trimeric); 20 mM sodium phosphate, 100 mM NaCl, pH 6.0, 25 °C; Kd called approximate
[2] = molecular target: Grb2 C-terminal SH3 domain (SH3C), residues 155-217 (mouse) (UniProt Q60631); test: ITC; free Grb2 SH3C in the cell (20 uM for the peptide, 40 uM for Vav) titrated with 280 uM SLP65 peptide or 600 uM Vav SH3N; 20 mM sodium phosphate, 100 mM NaCl, pH 6.0, 25 °C; one-site binding model
Chain of Grb2 C-terminal SH3 domain (SH3C), residues 155-217 (mouse) (Q60631 155-217): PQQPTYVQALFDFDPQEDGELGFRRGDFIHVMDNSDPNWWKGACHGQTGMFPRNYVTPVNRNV

Chain of Grb2 SH3C-SLP65 peptide binary complex (formed before Vav SH3N was added) (mouse) (Q60631 155-217, one chain of several): as the sequence (Q60631 155-217) above

Kd [1]: 11.5 µM
dH [1]: -0.54 kcal/mol
stoichiometry N [1]: 1.1
Kd [2]: 4.5 µM
dH [2]: -3.15 kcal/mol
stoichiometry N [2]: 0.91
Substance: Vav N-terminal SH3 domain (SH3N), residues 583-660 (from UniProt Q8VDU4 583-660) (domain or fragment)
